This is an account of results in publication PMC5449630 (Nucleic Acids Research, 2017).

Usually stoichiometry N stands for a count of units in the complex or per binding partner.

The data set “SEC” concerns the molecule itself. Kind of data set: SEC.
The target of data set [1] is T1, DNA ligase IV tandem BRCT domains (residues 654-911) (UniProt P49917 654-911).
T1 sequence (looked up): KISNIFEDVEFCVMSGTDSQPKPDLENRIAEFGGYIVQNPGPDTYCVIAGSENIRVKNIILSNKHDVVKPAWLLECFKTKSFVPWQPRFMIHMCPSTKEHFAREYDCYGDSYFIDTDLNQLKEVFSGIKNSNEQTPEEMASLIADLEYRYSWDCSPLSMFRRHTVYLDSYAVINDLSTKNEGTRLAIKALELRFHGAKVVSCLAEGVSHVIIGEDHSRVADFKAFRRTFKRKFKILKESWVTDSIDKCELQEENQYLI
Kind of data set: SEC.

The data set “SEC-MALS” deals with the molecule itself. The experiment in a line: SEC-MALS. (Size exclusion chromatography separates by hydrodynamic size, large species first.)

B1: XRCC4 residues 1-238, non-phosphorylated (domain or fragment, UniProt Q13426 1-238, looked up)
chain: MERKISRIHLVSEPSITHFLQVSWEKTLESGFVITLTDGHSAWTGTVSESEISQEADDMAMEKGKYVGELRKALLSGAGPADVYTFNFSKESCYFFFEKNLKDVSFRLGSFNLEKVENPAEVIRELICYCLDTIAENQAKNEHLQKENERLLRDWNDVQGRFEKCVSAKEALETDLYKRFILVLNEKKTKIRSLHNKLLNAAQEREKDIKQEGETAICSEMTADRDPVYDESTDEESE
Regarding B1, the binding result (in the data set “SEC”; in data set [1]) was “binds” throughout.

B2: CK2-phosphorylated XRCC4 residues 1-238 (domain or fragment, UniProt Q13426 1-238, looked up)
chain: MERKISRIHLVSEPSITHFLQVSWEKTLESGFVITLTDGHSAWTGTVSESEISQEADDMAMEKGKYVGELRKALLSGAGPADVYTFNFSKESCYFFFEKNLKDVSFRLGSFNLEKVENPAEVIRELICYCLDTIAENQAKNEHLQKENERLLRDWNDVQGRFEKCVSAKEALETDLYKRFILVLNEKKTKIRSLHNKLLNAAQEREKDIKQEGETAICSEMTADRDPVYDESTDEESE
modifications: phosphoserine at 232, phosphothreonine at 233 (CK2alpha in vitro)
As to B2, in data set [1], the binding result is listed as “binds”. For the same molecule, in “SEC-MALS”, the “stoichiometry N” value is 2.
